Results: US20220259296A1 (Boehringer Ingelheim, published 2022)

What was measured:
[1] = target: T1, human complement C3 (human, UniProt P01024 23-1663); experiment: direct ELISA, plate coated with purified native human C3
T1 construct: mature; Native plasma C3 is processed from one precursor into a beta and an alpha chain; also called native human C3; complement component 3
Procedure: (§1) M0122, M0124 and M0228 were evaluated for their ability to bind both human C3 and C3b in a direct binding ELISA assay (FIG. 8A and FIG. 8B). Briefly, 96 well ELISA plates were coated with purified native human C3 or C3b (Complement Technology, A113 and A114). Serial dilutions of antibody molecules were added to the plate and detected by a rabbit anti-human Kappa HRP antibody (Abcam, ab202549) or a rabbit anti-His Tag HRP antibody (Abcam, ab1187). M0122, M0124 and M0228 show high affinity binding to both human C3 and C3b.

[2] = target: T1, human complement C3; experiment: biolayer interferometry, human C3
[3] = target: T1, human complement C3; experiment: competition ELISA on human C3; competitor: biotinylated M0123 (panel title 'Competition with M0123')
Procedure: (§2) M0251, M0228, M0122, M0123 and M0124 were tested in a pairwise combinatorial manner to identify those that target the same region (epitope) on C3. Briefly, one antibody was labelled via biotinylation and incubated together with other antibody clones in a C3 binding ELISA. Those anti-C3 antibodies that competed for the same binding region were considered to share similar epitopes and therefore to have similar functions. This information enables to reduce the number of potential antibody candidates while maintaining epitope diversity. Out of the five antibodies inhibiting all three complement pathways, M0251, M0228 and M0123 were considered to share the same epitope on C3 (FIG. 7D). Inhibiting leads were assumed to bind three different epitopes on C3 (FIG. 7A-7D).

[4] = target: T1, human complement C3; experiment: cell-based or functional assay
[5] = target: T2, human complement C3b (human, UniProt P01024 23-667; P01024 749-1663); experiment: direct ELISA, plate coated with purified human C3b
T2 construct: domain: C3b; Cleavage product of C3 (C3 without C3a)
T2 sequence (P01024 23-667 limits assumed, chain 1 of 2): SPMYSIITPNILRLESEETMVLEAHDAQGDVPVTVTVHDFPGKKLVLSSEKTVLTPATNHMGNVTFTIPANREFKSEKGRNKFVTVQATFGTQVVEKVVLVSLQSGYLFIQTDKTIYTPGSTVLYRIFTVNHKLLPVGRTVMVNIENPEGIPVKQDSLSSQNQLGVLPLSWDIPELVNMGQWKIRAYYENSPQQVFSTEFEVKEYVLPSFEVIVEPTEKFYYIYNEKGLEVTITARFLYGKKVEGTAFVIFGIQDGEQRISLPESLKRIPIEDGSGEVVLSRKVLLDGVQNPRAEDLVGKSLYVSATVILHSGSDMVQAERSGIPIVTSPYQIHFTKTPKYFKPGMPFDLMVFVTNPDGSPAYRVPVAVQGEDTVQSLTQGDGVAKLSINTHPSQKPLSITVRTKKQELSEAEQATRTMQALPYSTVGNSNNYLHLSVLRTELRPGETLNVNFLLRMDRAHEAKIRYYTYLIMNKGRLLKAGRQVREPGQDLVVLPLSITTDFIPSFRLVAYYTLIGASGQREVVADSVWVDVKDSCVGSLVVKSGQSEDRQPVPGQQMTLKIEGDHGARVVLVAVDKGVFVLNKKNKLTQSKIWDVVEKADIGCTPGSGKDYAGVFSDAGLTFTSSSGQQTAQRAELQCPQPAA
T2 sequence (P01024 749-1663 limits assumed, chain 2 of 2): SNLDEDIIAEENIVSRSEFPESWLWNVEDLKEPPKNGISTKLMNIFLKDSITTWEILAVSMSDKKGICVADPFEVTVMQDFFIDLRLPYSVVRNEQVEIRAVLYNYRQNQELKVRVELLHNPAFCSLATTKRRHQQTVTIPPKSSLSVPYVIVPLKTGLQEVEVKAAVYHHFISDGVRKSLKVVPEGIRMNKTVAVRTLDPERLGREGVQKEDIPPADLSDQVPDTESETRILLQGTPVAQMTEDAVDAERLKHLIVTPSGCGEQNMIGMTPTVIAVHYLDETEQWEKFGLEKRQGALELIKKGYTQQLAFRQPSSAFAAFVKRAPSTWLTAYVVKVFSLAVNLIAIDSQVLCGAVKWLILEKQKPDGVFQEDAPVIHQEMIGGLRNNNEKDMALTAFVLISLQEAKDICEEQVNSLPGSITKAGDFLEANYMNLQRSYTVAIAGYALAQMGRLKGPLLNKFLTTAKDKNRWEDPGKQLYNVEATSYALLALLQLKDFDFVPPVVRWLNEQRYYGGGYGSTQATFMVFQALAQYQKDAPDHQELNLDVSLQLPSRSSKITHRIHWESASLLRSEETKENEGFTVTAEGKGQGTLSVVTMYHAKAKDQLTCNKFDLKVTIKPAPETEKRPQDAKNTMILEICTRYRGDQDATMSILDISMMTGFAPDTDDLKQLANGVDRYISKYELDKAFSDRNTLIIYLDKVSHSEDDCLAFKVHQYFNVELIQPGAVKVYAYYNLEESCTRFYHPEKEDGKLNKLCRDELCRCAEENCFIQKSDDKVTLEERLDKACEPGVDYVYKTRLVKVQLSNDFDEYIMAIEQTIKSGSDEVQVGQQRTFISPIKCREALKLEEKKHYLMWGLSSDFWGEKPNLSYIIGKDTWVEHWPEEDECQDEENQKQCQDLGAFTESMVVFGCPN
Procedure: as §1

[6] = target: T1, human complement C3; experiment: competition ELISA on human C3; competitor: biotinylated M0251 (panel title 'Competition with M0251')
Procedure: as §2

[7] = target: T3, cynomolgus monkey C3 (cynomolgus monkey (Macaca fascicularis)); experiment: ELISA, cyno C3 captured from cynomolgus serum by coated polyclonal goat antiserum
T3 construct: mature; Native protein from serum; also called cyno C3; cynomolgus C3
Procedure: Antibodies identified as capable of inhibiting all three complement pathways were assessed for their ability to bind cynomolgus monkey C3 in ELISA. Briefly, 96 well ELISA plates were coated with polyclonal goat antiserum deemed to be cross-reactive to cyno C3 and followed by a secondary association with a custom preparation of cynomolgus monkey serum (BioIVT, NB-151558). Serial dilutions of the antibody molecules were added to the ELISA plate and antibodies binding to cyno C3 were detected with a rabbit anti-human Kappa HRP antibody (Abcam, ab202549) or a mouse anti-His Tag HRP antibody (R&D Systems, MAB050H). Leads M0122, M0124 and M0251 show binding in a dose response manner to cynomolgus monkey C3.

[8] = target: T1, human complement C3; experiment: competition ELISA on human C3; competitor: biotinylated M0122 (panel title 'Competition with M0122')
Procedure: as §2

T1 sequence (P01024 23-1663): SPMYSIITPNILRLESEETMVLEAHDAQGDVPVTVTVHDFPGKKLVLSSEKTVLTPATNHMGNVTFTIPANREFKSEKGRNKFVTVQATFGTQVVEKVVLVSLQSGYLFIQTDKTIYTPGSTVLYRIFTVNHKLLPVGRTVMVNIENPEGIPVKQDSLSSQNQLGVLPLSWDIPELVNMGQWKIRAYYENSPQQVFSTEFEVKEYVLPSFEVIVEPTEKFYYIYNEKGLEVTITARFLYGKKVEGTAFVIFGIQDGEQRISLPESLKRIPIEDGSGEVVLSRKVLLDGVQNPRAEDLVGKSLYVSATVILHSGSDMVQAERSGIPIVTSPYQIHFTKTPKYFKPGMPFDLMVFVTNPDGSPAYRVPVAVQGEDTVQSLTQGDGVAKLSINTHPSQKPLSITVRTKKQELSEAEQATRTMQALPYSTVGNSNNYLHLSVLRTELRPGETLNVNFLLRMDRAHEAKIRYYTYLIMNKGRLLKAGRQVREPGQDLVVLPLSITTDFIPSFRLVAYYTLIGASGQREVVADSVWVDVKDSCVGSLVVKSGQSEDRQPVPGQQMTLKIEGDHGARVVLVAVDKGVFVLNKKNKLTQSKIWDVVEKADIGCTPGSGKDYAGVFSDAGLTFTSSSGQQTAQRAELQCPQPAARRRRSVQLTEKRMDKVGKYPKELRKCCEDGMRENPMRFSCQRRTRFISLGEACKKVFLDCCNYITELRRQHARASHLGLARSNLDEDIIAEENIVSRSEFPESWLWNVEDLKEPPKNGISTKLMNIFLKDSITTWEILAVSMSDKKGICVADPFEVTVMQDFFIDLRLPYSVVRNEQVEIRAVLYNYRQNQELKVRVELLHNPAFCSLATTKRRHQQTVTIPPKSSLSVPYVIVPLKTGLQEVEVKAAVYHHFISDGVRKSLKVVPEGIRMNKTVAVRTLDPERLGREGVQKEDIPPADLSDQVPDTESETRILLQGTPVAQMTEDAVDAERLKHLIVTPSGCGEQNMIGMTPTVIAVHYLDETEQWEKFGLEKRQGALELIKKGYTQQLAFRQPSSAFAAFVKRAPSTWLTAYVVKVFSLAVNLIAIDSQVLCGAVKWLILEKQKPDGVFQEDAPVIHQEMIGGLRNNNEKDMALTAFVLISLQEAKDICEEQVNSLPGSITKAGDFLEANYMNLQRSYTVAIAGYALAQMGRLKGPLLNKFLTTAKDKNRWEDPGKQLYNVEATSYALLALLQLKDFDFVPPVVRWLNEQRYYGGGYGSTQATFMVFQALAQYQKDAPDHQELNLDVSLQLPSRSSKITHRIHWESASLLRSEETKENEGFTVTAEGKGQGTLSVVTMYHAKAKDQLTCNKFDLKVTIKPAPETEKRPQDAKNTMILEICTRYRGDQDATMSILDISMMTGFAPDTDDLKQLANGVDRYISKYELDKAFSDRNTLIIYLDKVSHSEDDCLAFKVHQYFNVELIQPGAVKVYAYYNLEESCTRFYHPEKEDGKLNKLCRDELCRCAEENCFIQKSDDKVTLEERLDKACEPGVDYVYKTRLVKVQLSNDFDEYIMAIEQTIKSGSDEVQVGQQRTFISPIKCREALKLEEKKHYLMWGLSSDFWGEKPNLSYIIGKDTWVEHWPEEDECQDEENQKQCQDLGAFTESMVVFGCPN

B1: M0228 (VHH)
VHH: EVQLVESGGGLVQAGGSLRLSCAASGRTINDYTMGWFRQAPGKDREFVSAINWRGSSTYYADSVKGRFTISRDNAKKTIYLQMNLLKPEDTAVYYCARQVSPYVELTATAAYWGQGTQVTVSS
notes: Wild-type llama VHH domain; also called anti-C3 antibody M0228
[1]
  EC50 (read off the curve): ~0.03 µg/mL
[2]
  Kd: 0.199 nM
  koff: 0.000111 s⁻¹
  kon: 557000 M⁻¹ s⁻¹
[3]
  IC50 (read off the curve): ~2 nM
[4]
  inhibition of classical, lectin and alternative complement pathways in human serum (Wieslab Complement system Screen, C5b-C9 neoantigen): ≥ 90%
[5]
  EC50 (read off the curve): ~0.03 µg/mL

B2: M0123 (antibody, V domains shown)
VH: QSVKESEGRLVTPGTPLTLTCTASGFTIGSYHMSWVRQAPGKGLEWIGIIYTDGNTDYANWAKGRFTISKTSTTMDLKMTSLTAADTATYFCARRGYADYGYTFNLWGQGTLVTISS
VL: ELVLTQPASVQVNLGQTVSLTCTADTLSRNYASWYQQKPGQAPVLLIYRDTSRPSGVPDRFSGSSSGNTATLTISGAQAGDEADYYCATGDGSGSSYQFVFGGGTQLTVTG
notes: Wild-type rabbit VH/VL from a rabbit scFv phage library; A separate 'scFv-derivative of M0123 (26 kDa)' was used only in the Bruch's membrane diffusion test; also called anti-C3 antibody M0123
[3]
  IC50 (read off the curve): ~9 nM
[4]
  inhibition of classical, lectin and alternative complement pathways in human serum (Wieslab Complement system Screen, C5b-C9 neoantigen): ≥ 90%

B3: M0251 (VHH)
VHH: EVQLVESGGGLVQAGGSLRLSCVASGHTFGNWAMGWFRQAPGKEREFVGAIRWSVGTTNYRDSVKGRFAISRDNARNTVYLQMNRLKPEDTAVYYCAAGTPFVLARINGYDYWGQGTQVTVSS
notes: Wild-type llama VHH domain; also called anti-C3 antibody M0251
[3]
  IC50 (read off the curve): ~20 nM
[4]
  inhibition of classical, lectin and alternative complement pathways in human serum (Wieslab Complement system Screen, C5b-C9 neoantigen): ≥ 90%
[6]
  IC50 (read off the curve): ~4 nM
[7]
  EC50 (read off the curve): ~5 nM

B4: M0124 (antibody, V domains shown)
VH: QSVKESGGRLVTPGTPLTLTCTVSGIDLSRYWMNWVRQAPGKGLEWIGYITTNDKTYYANWAKGRYTISKTSSTTVDLKMTSLTTEDTATYFCARRSSGAYDIWGPGTLVTISS
VL: QPVLTQSPSASATLGASAKLTCTLSSAHKTYYIEWYQQQQGEAPRYLMQLKSDGTYTKGTGVPDRFSGSSSGADRYLIISSVQAEDEADYICGVTGGNVYVFGGGTQLTVTG
notes: Wild-type rabbit VH/VL from a rabbit scFv phage library; ELISA detection used an anti-human Kappa HRP or an anti-His Tag HRP antibody; also called anti-C3 antibody M0124
[1]
  EC50 (read off the curve): ~0.07 µg/mL
[2]
  Kd: 0.0124 nM
  koff: 5.18e-05 s⁻¹
  kon: 4.16e+06 M⁻¹ s⁻¹
[4]
  inhibition of classical, lectin and alternative complement pathways in human serum (Wieslab Complement system Screen, C5b-C9 neoantigen): ≥ 90%
[5]
  EC50 (read off the curve): ~0.04 µg/mL
[7]
  EC50 (read off the curve): ~3 nM

B5: M0122 (antibody, V domains shown)
VH: QSVKESGGRLVTPGTPLTLTCTVSGFSLYNYAMNWVRQAPGKGLEWIGIINTDGNTNYASWAKGRFTISTTSSTTVDLKITSPTTEDTATYFCPRAVGYHHHALDPWGPGTLVTVSS
VL: ELVLTQSPSVSAALGASAKLTCTLSSAHKTYTIDWYQQQQGEAPRYLMQLKSDGSYTKGTGVPDRFSGSSSGADRYLIIPSVQADDEADYYCGTDYGGGYVFGGGTQLTVTG
notes: Wild-type rabbit VH/VL from a rabbit scFv phage library; ELISA detection used an anti-human Kappa HRP or an anti-His Tag HRP antibody; also called anti-C3 antibody M0122
[1]
  EC50 (read off the curve): ~0.03 µg/mL
[2]
  Kd: 0.0528 nM
  koff: 4.7e-06 s⁻¹
  kon: 89000 M⁻¹ s⁻¹
[4]
  inhibition of classical, lectin and alternative complement pathways in human serum (Wieslab Complement system Screen, C5b-C9 neoantigen): ≥ 90%
[8]
  IC50 (read off the curve): ~20 nM
[5]
  EC50 (read off the curve): ~0.04 µg/mL
[7]
  EC50 (read off the curve): ~2 nM
